From patent US20250345467A1, “DENDRIMER FOR THERAPY AND IMAGING” (priority 2018, published 2025)

Columns and labels:
[1] = test system: spontaneous gliomas (high grade glioma mouse model); test: PET-MRI tumour imaging study, glioblastoma; assay type: in vivo, mice; conditions: Zr-89 radiolabelled, approximately 5 MBq; for % ID/g at 40 hrs: 40 hrs post-injection; for % ID/g at 5 days: 5 days post-injection
From the text: The aim of this study was to assess the level of accumulation of example radionuclide-containing dendrimers in mice bearing spontaneous gliomas. This model provides a route to effectively assess the ability to both cross the blood-brain-barrier (BBB) as well as accumulate in tumour tissue.
Gt(ROSA)26So^rtm14(CAG-tdTomato)Hze 20023653 was crossed with Pten^tm2MAK; Rb1^tm2Bm; Trp53^tm1Bm; Tg(GFAP-cre/Esr1*,−lacZ)BSbk^31,44-47 (alleles) and backcrossed six generations to latter mice to generate Gt(ROSA)26Sor^tm14(CAG-tdTomato)Hze; Pten^tm2MAK; Rb1^tm2Bm; Trp53^tm1Bm; Tg(GFAP-cre/Esr1*,−lacZ)BSbk (high grade glioma mouse model; HGG). Mice were maintained on a predominantly FVB/NJ background with contributions from 129/SV and C57Bl6. To induce Cre recombinase and thereby tumor formations, 20 mg/ml Tamoxifen (Sigma-Aldrich) dissolved in corn oil (Sigma-Aldrich) was injected intraperitoneally. Up to 200 mg/kg body weight was administered weekly for 3 consecutive weeks after postnatal day (P) 30 (range P30-44). Animal's health and welfare was monitored up to twice daily and animals were euthanized based on morbidity requirement.
91 μL Zr-89 oxalate in 1 M oxalic acid (Perkin Elmer) was diluted with 78 μL 1 M Na2CO3 to neutralize pH. Dendrimer 1b was dissolved in 0.5 M HEPES (pH 7.5). 33 μL neutralized Zr-89 stock (approximately 15 MBq) was added to the dendrimer (146 μg) to give 100-fold excess of the dendrimer to Zr-89 and labelling was allowed to proceed at room temperature for 1 hour. The sample was then buffer exchanged into phosphate-buffered saline using Zeba Spin Desalting Columns (7 kDa MWCO, Thermo Fisher Scientific). 1 μL sample of the solution was taken and spotted on thin layer chromatography paper (Agilent iTLC-SG Glass microfiber chromatography paper impregnated with silica gel) and run with 50 mM diethylenetriaminepentaacetic acid (DTPA) as the eluent. Control experiments were conducted to monitor the elution behaviour of unbound Zr-89 for quality control. Plates were then imaged on a Bruker In Vivo MS FX Pro imaging system using a radioisotopic phosphor screen. ˜100% chelation of the Zr-89 was observed and so the dendrimer was used directly for the imaging experiments.
Anaesthetized mice, with a cannulated tail vein, were placed in a combined MRI/PET system, comprising a 300 mm bore 7T ClinScan, running Siemens VB17, and removable PET insert containing 3 rings of 16 detector blocks with 15×15 LSO crystals (1.6×1.6×10 mm) per block, at the centre of the magnet bore operating under Siemens Inveon Acquisition Workplace (IAW) (Bruker, Germany). A 23 mm ID mouse head MRI RF coil inside the PET ring was used to acquire mouse head images simultaneously with the PET acquisition.
Mice were injected with approximately 5 MBq of Zr-89 labelled dendrimer 1b and imaged 40 hours and 5 days post-injection. At each imaging point a dose of Gadovist® contrast agent was injected to obtain pre- and post-contrast T1, T2, and dynamic image data. The injection dose at each timepoint was comprised of 50 μl Gadovist® diluted with PBS (1×) to give a total volume of 200 μl. This volume was injected via a catheter inserted into the tail vein in a slow bolus injection. Where collected, dynamic PET data acquisition was performed for 60 min. Prior to injection, fast localizer images and a 3D T1 weighted volumetric interpolated breath-hold examination VIBE sequence was acquired. Dynamic MRI images were acquired with a Gradient echo FLASH sequence, with 3 slices acquired each 2 seconds interval. The PET acquisition and dynamic MRI imaging was started simultaneously, a 2-3 min baseline period acquired and then the solution was injected. Following 15 min of dynamic MRI scanning, the T1 weighted VIBE was repeated, structural T2 weighted spin echo images acquired and a […] T1 weighted VIBE_DIXON sequence acquired to generate a 3D T1 map. […]

[2] = Organ biodistribution, clearance and health monitoring in the prostate cancer xenograft study; assay type: in vivo, Balb/C nude mice; conditions: Zr-89 labelled, mice bearing DU-145 or PC3 xenografts, whole study (9 days)
Experimental: The accumulation of two different dendrimer constructs in two different murine xenograft models of prostate cancer (DU145 and PC3 cell lines) was investigated. The two different constructs were compound 1b and 3 which are pre-conjugated with DFO, which were labelled with 89Zr for subsequent imaging studies. The biodistribution was measured by PET-CT out to 9 days in two different tumour xenografts and then validated by ex vivo gamma scintillation of excised organs at day 9.
Dendrimers were labelled and purified, validated by radioTLC prior to injection into the animals. Imaging was conducted in a cohort of n=4 mice for each cell line and each dendrimer. Standard health of the mice was monitored by score sheet and mouse weight over the complete timeframe of the study.
Healthy male Balb/C nude mice (˜20 g) from 8 weeks old were obtained from the ARC and used for this study. Mice were imported into the animal holding facility and monitored for 1 week prior to the study in order to acclimatise to the environment prior to injection of cells. […]
Mice (n=4 per group) bearing DU-145 or PC3 xenografts were injected with Zr-89 labelled dendrimers (compounds 1b and 3) via tail-vein. […] At 216 hrs post-injection, the organs were removed and signal intensity quantified by ex vivo gamma analysis. Faecal pellets were also measured for activity at this timepoint. […]

[3] = test system: DU-145 subcutaneous tumours; test: Therapeutic study with radionuclide-containing dendrimers, DU-145 subcutaneous tumours; assay type: in vivo, Balb/C nude mice; conditions: FIG. 20
From the text: Healthy male Balb/C nude mice (˜20 g) from 8 weeks old were obtained from the ARC and used for this study. Mice were imported into the animal holding facility and monitored for 1 week prior to the study in order to acclimatise to the environment prior to injection of cells. All animals were provided with free access to food and water before and during the imaging experiments which were approved by the Animal Ethics Committee.
The following compounds were used in the study: • Example 4b • Example 5 • Jevtana® (cabazitaxel) • Comparative example A: a non-radionuclide-containing dendrimer, which is BHALys[Lys]32[α-DGA-Cabazitaxel]32†[ε-PEG˜2100]32‡. […] The actual mean number of PEG˜2100 groups attached to the BHALys[Lys]32 was determined experimentally by ^1H NMR. […]
78 mice were injected with 4×10^6 DU-145 cells in Matrigel into the right flank to induce subcutaneous tumours. Tumour volume and body mass was monitored twice per week before mice with evident tumour growth (approximately […] in volume, tumour volume=½ (length×width^2)) were randomly assigned to groups and injected with compounds according to the schedule outlined in the table below, at day 0, 7 and 14. Following injections, the mice were monitored three times per week for tumour volume and body mass. […]

Row | Substance | % ID/g at 40 hrs ([1]; Brain (minus tumour)) [% ID/g] | % ID/g at 5 days ([1]; Brain (minus tumour)) [% ID/g] | % ID/g at 40 hrs ([1]; Tumour) [% ID/g] | % ID/g at 5 days ([1]; Tumour) [% ID/g] | % ID/g at 40 hrs ([1]; Vascalature) [% ID/g] | % ID/g at 5 days ([1]; Vascalature) [% ID/g] | adverse health effects [2] | suppression of tumour growth, ranking among groups ([3]; group 4: higher dose, 4b 8 mg/kg (6 MBq) day 0, then Comparative Example A 8 mg/kg days 7 and 14) | suppression of tumour growth ([3]; groups 4 and 7: Lu-177 labelled 4b 8 or 5 mg/kg (6 MBq) day 0, then Comparative Example A days 7 and 14)
1 | BHALys[Lys]32[(α-TDA-DTX)30(α-DFO)2(ε-PEG2000)32] [Compound 1b] | 2.0 | 1.5 | 4.3 | 4.0 | 2.3 | 2.0 | no adverse health effects |  | 
2 | BHALys[Lys]32[(α-DGA-CTX)31(α-DFO)1(ε-PEG2000)32] [Compound 3] |  |  |  |  |  |  | no adverse health effects |  | 
3 | BHALys[Lys]32[(α-DGA-CTX)27(α-DOTA)2(ε-PEG2000)32] [Compound 4b] |  |  |  |  |  |  |  | most effective | effective in suppressing tumour growth
